Laboratory results as given in patent US20210347908A1 (ELPISCIENCE SUZHOU BIOPHARMA, published 2021).
Where two headings read alike, the source gives them in different places.

T1: full length C57BL/6 mouse SIRPα stably expressed on CHOK1 cells (mouse (C57BL/6), UniProt P97797 32-513)
T1 construct: whole, on cells; also called CHOK1-C57BL/6 mouse SIRPα-2.22 cells
T1 sequence (looked up): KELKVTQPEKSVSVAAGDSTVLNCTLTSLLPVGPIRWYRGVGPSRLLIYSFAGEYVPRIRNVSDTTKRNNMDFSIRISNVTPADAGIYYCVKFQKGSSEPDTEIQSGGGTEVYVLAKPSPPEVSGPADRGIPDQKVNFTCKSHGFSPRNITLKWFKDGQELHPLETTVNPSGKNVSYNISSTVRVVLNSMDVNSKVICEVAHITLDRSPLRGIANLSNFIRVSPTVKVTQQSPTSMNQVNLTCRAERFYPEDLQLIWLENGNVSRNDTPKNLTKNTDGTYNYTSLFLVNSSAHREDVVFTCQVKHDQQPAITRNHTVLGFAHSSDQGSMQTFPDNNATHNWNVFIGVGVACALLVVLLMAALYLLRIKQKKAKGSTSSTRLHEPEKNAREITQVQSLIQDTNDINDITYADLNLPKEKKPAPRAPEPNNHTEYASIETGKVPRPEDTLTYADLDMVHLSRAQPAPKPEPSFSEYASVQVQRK


Experiments:
[1] = molecular target: T2, Fc tagged human SIRPα v1 ECD recombinant protein (human, UniProt P78324 31-370); experiment: ELISA
T2 construct: range 1-370; cloned range M1-R370 includes the signal peptide; also called hSIRPα V1; not shown: human IgG Fc region (hFc) of the pCPC vector
Experimental: (§1) Binding specificity of the purified hybridoma antibodies against SIRP family members was detected by ELISA assay using recombinant proteins of Fc tagged human SIRPα v1 ECD, human SIRPα v2 ECD, human SIRPβ ECD and human SIRPγ ECD. Briefly the antibodies were incubated with ELISA microplate coated antigens at 37° C. for 1 hour. After washing, horseradish peroxidase (HRP) labeled anti-mouse or anti-human IgG 2nd Ab (Sigma) was added and incubated at 37° C. for 1 hour. Then, 100 μl/well of TMB solution (Biotechnology) was added. After incubation for 15 minutes at room temperature, the reaction was stopped by the addition of 50 μl of 1N HCl. OD 450 nm was read and EC₅₀ was calculated. Other than 060 and HEFLB, all of the antibodies as tested can bind with both human SIRPα v1 and SIRPα v2. 060 and HEFLB can bind with human SIRPα v1 but not v2. Other than 055, all of the antibodies as tested can bind with human SIRPβ. In comparison with other known anti-SIRPα antibodies, only 022, 035 and 050 can bind with human SIRPγ weakly.
(§2) The purified chimeric antibodies were applied for binding specificity analysis and species cross reactivity analysis (refer to methods described in Example 3.3 and 3.4). FIGS. 1A to 1D show binding specificity of anti-SIRPα chimeric antibodies against recombinant proteins of human SIRPα v1 ECD (A), human SIRPα v2 ECD (B), human SIRPβ ECD (C) and human SIRPγ ECD (D) as measured by ELISA analysis.

[2] = molecular target: T2, Fc tagged human SIRPα v1 ECD …; experiment: ELISA; remark: listed apart in the source
Experimental: as §1, §2

[3] = molecular target: T3, Fc tagged human SIRPα v2 ECD recombinant protein (human); experiment: ELISA
T3 construct: range 1-369; cloned range M1-R369 includes the signal peptide; also called hSIRPα V2
Experimental: as §1, §2

[4] = molecular target: T4, Fc tagged human SIRPβ ECD recombinant protein (human, UniProt O00241 30-371); experiment: ELISA
T4 construct: range 1-371; cloned range includes the signal peptide; also called hSIRPβ; not shown: human IgG Fc region (hFc) of the pCPC vector
Experimental: as §1, §2

[5] = molecular target: T5, full length human SIRPα v1 stably expressed on CHOK1 cells (human, UniProt P78324 31-504); experiment: FACS on CHOK1 cells
T5 construct: whole, on cells; also called CHOK1-human SIRPα v1-1B4 cells; CHOK1-human SIRPα v1
Experimental: Species cross reactivity of the purified hybridoma antibodies against human, cyno and mouse SIRPα was determined by FACS assay using CHOK1-human SIRPα v1-1B4 cells, CHOK1-cyno SIRPα-2A2 cells, and CHOK1-C57BL/6 mouse SIRPα-2.22 cells, which stably expressing SIRPα protein. Briefly the antibodies were incubated with 2×10⁵ target cells at 4° C. for 1 hour. After washing, fluorescence labeled anti-mouse or anti-human IgG 2nd antibody (Life Technologies) was added and incubated at 4° C. for 1 hour. Geometric median fluorescence intensity was detected and EC₅₀ was calculated. In particular, it is noted, in contrast to the other antibodies tested in the same experiment, 060 cannot bind with cyno SIRPα and 035 has cross reactivity against C57BL/6 mouse SIRPα. […]

[6] = molecular target: T5, full length human SIRPα v1 stably …; experiment: FACS on CHOK1 cells; remark: listed apart in the source
Experimental: (§3) Species cross reactivity of the purified hybridoma antibodies against human, cyno and mouse SIRPα was determined by FACS assay using CHOK1-human SIRPα v1-1B4 cells, CHOK1-cyno SIRPα-2A2 cells, and CHOK1-C57BL/6 mouse SIRPα-2.22 cells, which stably expressing SIRPα protein. Briefly the antibodies were incubated with 2×10⁵ target cells at 4° C. for 1 hour. After washing, fluorescence labeled anti-mouse or anti-human IgG 2nd antibody (Life Technologies) was added and incubated at 4° C. for 1 hour. Geometric median fluorescence intensity was detected and EC₅₀ was calculated. In particular, it is noted, in contrast to the other antibodies tested in the same experiment, 060 cannot bind with cyno SIRPα and 035 has cross reactivity against C57BL/6 mouse SIRPα.
as §2

[7] = molecular target: T1, full length C57BL/6 mouse SIRPα stably …; experiment: FACS on CHOK1 cells
Experimental: as §3, §2

[8] = molecular target: T5, full length human SIRPα v1 stably …; experiment: FACS on CHOK1 cells; remark: listed apart in the source
[9] = molecular target: T6, biotin labeled soluble human SIRPα v1 ECD recombinant protein (human, UniProt P78324 31-373, biotin labeled); experiment: competitive ELISA; competitor 032
T6 construct: extracellular domain
Experimental: (§4) Competitive ELISA assay was used for epitope binning of 9 functional antibodies. Briefly excessive competitor antibody and biotin labeled soluble human SIRPα v1 ECD recombinant protein were co-incubated with ELISA microplate coated antibody. After washing, HRP-SA was added and incubated at 37° C. for 1 hour. Then, […] of TMB solution (Biotechnology) was added. After incubation for 15 minutes at room temperature, the reaction was stopped by the addition of […] of 1N HCl. OD 450 nm was read. Competition ratio was calculated. The antibodies that can compete each other for binding to SIRPα have the similar binding epitope.

[10] = molecular target: T6, biotin labeled soluble human SIRPα v1 …; experiment: competitive ELISA; competitor 035
Experimental: as §4

EC50 [1] [nM] | EC50 [2] [nM] | EC50 [3] [nM] | EC50 [4] [nM] | EC50 [5] [nM] | EC50 [6] [nM] | binding result [7] | EC50 [8] [nM] | % Competition [9] [%] | % Competition [10] [%] | MFI at 10 nM [7] [MFI] | Binder
0.11 | 0.11 | 0.1 | 0.08 | 2.4 | 2.4 | no binding (tested: 10 nM) |  |  |  |  | chimeric antibody 050c (antibody, V domains shown) VH: QIQLVQSGPELKKPGETVKISCKASGYTFTHYSMHWVKQAPGKGLKWMGWINTETAEPTYVDDFKGRFAFSLEASASTAFFQINNLKNEDTATYFCARGGLRQGDYWGQGTTLTVSS VL: QIVLTQSPPIMSASPGEKVTLTCSATSSVSASYLYWFQQKPGSSPKLWIYSTSNLASGVPARFSGSGSGTSYSLTISNMEPADAASYFCHQWSSYPYTFGGGTKLEIK
0.1 | 0.1 | 0.09 | 0.08 | 2.8 | 2.8 | no binding (tested: 10 nM) | 2.8 | 82 | 4 |  | reference antibody KWAR23 (antibody, V domains shown) VH: EVQLQQSGAELVKPGASVKLSCTASGFNIKDYYIHWVQQRTEQGLEWIGRIDPEDGETKYAPKFQDKATITADTSSNTAYLHLSSLTSEDTAVYYCARWGAYWGQGTLVTVSS VL: QIVLTQSPAIMSASPGEKVTLTCSASSSVSSSYLYWYQQKPGSSPKLWIYSTSNLASGVPARFSGSGSGTSYSLTISSMEAEDAASYFCHQWSSYPRTFGAGTKLELK
0.11 | 0.11 | 0.11 | 0.08 | 1.7 | 1.7 | no binding (tested: 10 nM) |  |  |  |  | chimeric antibody 022c (antibody, V domains shown) VH: QIQLVQSGPELKKPGETVKISCKASGYTFTDYAMHWVKQAPGKGLKWMGWKNTETGESTYAEDFKGRFAFFLETSASTAYLQINNVKNEDTATYFCARGGYGSNYVMDYWGQGTSVIVSS VL: DIQMTQSSSSFSVSLGDRVTITCKASEDIYNRLAWYQQKPGNAPRLLISGATSLETGVPSRFSGSGSGKDYTLSITSLQTEDVATYYCQQYWNSPRTFGGGTKLEIK
0.14 | 0.14 | 0.14 | 0.11 | 5.5 | 5.5 | no binding (tested: 10 nM) |  |  |  |  | chimeric antibody 074c (antibody, V domains shown) VH: QVQLQQPRAELVKPGASVMLSCKASGYTFSSYWIHWVRQGPGQGLEWIGLIHPNSGNTDCSETFKNKATLTVDTSSSTAYMQLSSLASEDSAVYYCARDGASYDWFVHWGQGTLVTVSA VL: not shown
0.08 | 0.08 | 0.08 | 0.08 | 1.3 | 1.3 |  | 1.5 |  |  | 13400 | chimeric antibody 035c (antibody, V domains shown) VH: QIQLVQSGPELRKPGETVKISCKASGYSFTNYAMNWVKQAPGKVLKWMGFINTYTGEPTYADDFKGRFAFSLETSASTAYLQINNLKNEDTATYFCTRTRGYYDFDGGAFDYWGQGTSLTVSS VL: DIVMTQSQKFMSTSIGDRVSVTCKASQNVGTHLAWYQQKPGQSPKALIFSASYRYIGVPDRFTGSGSGTDFTLTITNVQSEDLAEYFCQQYNTYPLTFGAGTKLELK
0.12 | 0.12 | 0.09 | 0.12 | 1.7 | 1.7 | no binding (tested: 10 nM) |  |  |  |  | chimeric antibody 001c (antibody, V domains shown) VH: EVKLEESGGGLVQPGGSMKLSCVASGFTFRNYWMNWVRQSPERGLEWIAEISLKSNTYATHYAESVKGRFAISRDGSKSSFYLQMNDLRAEDTGIYYCTTFTKVVADWHLDVWGAGTTVTVSS VL: DVLMTQTPLSLPVSLGDQASISCRSSQNIVHSNGNTYLEWYLQKPGQSPKLLIYKVSNRFSGVPDRFSGSGSGTDFTLRISRVEAEDLGVYYCFQGSHVPFTFGSGTKLEIK
0.12 | 0.12 | 0.11 | 0.12 | 3 | 3 | no binding (tested: 10 nM) |  |  |  |  | chimeric antibody 032c (antibody, V domains shown) VH: EVRLEESGGGLVQPGGSMKLSCVVSGFTFRNYWMNWVRQSPERGLEWIAEITLKSNTYATHYAESVKGRFAISRDDSKSSFYLQMNDLRPEDTGIYYCTTFTKVVADWHLDVWGAGTTVTVSS VL: DVLMTQTPLSLPVNLGDQASISCRSSQNIVHSNGNTYLEWYLQKPGQSPKLLIYKVSNRFSGVPDRFSGSGSGTDFTLRISRVEAEDLGVYYCFQGSHVPFTFGSGTKLEIK
0.06 | 0.06 | 0.06 | 0.11 | 2.4 | 2.4 | no binding (tested: 10 nM) |  |  |  |  | chimeric antibody 002c (antibody, V domains shown) VH: EVKLEESGGGLVQPGGSMILSCVASGFTFRNYWMNWVRQSPERGLEWIAEITLKSNTYATHYAESVKGRFAISRDDSKSSFYLQMNDLRPEDTGIYYCTTFTKVVADWHLDVWGAGTTVTVSS VL: DVLMTQTPLSLPVSLGDQASISCRSSQNIVHSNGNTYLEWYLQKPGQSPKLLIYKISNRFSGVPDRFSGSGSGTDFTLRISRVEAEDLGVYYCFQGSHVPFTFGSGTKLEIQ
